According to patent US20240018242:

Columns and labels:
[1] = target: FH-AGO2-K726R (UniProt Q9UKV8)
[2] = target: FH-AGO2 (Flag-HA-tagged wild type AGO2 expressed in MCF-7 cells) (UniProt Q9UKV8)
Chain of FH-AGO2 (Flag-HA-tagged wild type AGO2 expressed in MCF-7 cells) (Q9UKV8 whole entry): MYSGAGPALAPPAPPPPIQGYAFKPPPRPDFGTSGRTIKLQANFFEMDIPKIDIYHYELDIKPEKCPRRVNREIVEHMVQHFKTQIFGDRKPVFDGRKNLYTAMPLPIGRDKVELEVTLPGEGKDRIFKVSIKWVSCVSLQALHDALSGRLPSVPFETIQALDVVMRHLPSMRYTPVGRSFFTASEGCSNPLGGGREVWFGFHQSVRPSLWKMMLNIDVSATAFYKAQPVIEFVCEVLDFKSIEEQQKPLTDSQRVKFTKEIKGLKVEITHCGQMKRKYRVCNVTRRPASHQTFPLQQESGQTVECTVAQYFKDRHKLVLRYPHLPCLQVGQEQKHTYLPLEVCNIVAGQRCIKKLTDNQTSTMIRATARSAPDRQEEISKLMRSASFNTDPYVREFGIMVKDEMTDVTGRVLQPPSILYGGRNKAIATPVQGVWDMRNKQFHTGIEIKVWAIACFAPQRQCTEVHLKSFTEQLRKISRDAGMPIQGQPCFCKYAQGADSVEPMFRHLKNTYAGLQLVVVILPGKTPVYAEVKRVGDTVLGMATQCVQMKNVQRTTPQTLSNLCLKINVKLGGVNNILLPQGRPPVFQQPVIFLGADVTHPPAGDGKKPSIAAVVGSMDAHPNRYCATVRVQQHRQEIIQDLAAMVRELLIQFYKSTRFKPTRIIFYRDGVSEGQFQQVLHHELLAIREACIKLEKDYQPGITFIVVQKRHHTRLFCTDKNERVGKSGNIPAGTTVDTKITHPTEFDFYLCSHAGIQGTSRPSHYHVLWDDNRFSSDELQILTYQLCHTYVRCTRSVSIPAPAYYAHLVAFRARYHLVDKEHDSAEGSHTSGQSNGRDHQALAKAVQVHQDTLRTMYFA

Chain of FH-AGO2-K726R (Q9UKV8 whole entry K726R): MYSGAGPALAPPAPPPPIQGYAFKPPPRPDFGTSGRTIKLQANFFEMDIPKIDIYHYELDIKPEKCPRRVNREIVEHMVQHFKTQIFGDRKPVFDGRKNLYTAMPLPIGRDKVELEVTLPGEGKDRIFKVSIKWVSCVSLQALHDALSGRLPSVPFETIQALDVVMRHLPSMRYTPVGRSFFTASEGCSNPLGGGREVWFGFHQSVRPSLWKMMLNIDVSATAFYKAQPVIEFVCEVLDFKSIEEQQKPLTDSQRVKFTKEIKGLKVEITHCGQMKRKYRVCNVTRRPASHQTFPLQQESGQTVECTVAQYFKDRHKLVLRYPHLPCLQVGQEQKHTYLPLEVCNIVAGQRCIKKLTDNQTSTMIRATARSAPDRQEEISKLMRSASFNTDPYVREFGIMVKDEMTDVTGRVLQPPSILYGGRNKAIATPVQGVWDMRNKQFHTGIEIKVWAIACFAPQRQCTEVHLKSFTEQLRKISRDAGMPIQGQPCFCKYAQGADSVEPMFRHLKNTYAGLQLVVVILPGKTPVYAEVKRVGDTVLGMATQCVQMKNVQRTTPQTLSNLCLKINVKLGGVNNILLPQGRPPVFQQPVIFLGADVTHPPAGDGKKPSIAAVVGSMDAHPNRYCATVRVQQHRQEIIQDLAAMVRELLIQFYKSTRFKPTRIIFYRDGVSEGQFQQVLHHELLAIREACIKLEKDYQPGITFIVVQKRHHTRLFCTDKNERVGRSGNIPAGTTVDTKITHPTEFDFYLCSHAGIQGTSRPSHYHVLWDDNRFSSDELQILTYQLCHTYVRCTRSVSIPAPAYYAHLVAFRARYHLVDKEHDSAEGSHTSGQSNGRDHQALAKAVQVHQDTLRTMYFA

FH-LSD1 (Flag-HA-tagged wild type LSD1 expressed in MCF-7 cells)
K726me1 level in in vitro demethylation assay (immunoblot) [1]: had no observable effects on FH-AGO2-K726R | K726me1 level on FH-AGO2 in in vitro demethylation assay (immunoblot) [2]: FH-LSD1 but not FH-LSD1-K661A decreased K726mel level on FH-AGO2

FH-LSD1-K661A (catalytically compromised LSD1)
K726me1 level on FH-AGO2 in in vitro demethylation assay (immunoblot) [2]: FH-LSD1 but not FH-LSD1-K661A decreased K726mel level on FH-AGO2
